B1: Escherichia coli ClpP (EcClpP), wild type (enzyme)
chain: not shown
notes: ClpP protease proteolytic subunit, E. coli; Crystallised with the small molecule ACP1-06; An unexplained density extends from S111 in the structure (possible covalent modification, not identified); also called E. coli ClpP; caseinolytic protease P; copies: 14
B2: Neisseria meningitidis ClpP (NmClpP), wild type (enzyme)
chain: not shown
notes: ClpP, N. meningitidis MC58; expressed full length with N-terminal His6 tag and TEV site; also called apo-NmClpP; WT NmClpP; not shown: His6, N-terminal, cleaved; copies: 14

Tests used:
[1] = target: the molecule itself; assay: crystal structure; EcClpP 10 mg/mL in 10 mM HEPES pH 7.5, 200 mM NaCl with 5 mM ACP1-06; well 51-63% MPD, 0.1 M sodium acetate pH 5.0, room temperature; self-association (tetradecamer)
[2] = target: the molecule itself; assay: crystal structure; apo-NmClpP 5 mg/mL in 25 mM TrisHCl pH 7.5, 100 mM KCl; well 0.2 M potassium thiocyanate, 40% MPD, room temperature; self-association (tetradecamer)

Protein | stoichiometry N [1] | stoichiometry N [2]
B1 | 14 | 
B2 |  | 14
